Data as given in patent US20080193426A1, “MIGRATION OF HEMATOPOIETIC STEM CELLS AND PROGENITOR CELLS TO THE LIVER” (YEDA RESEARCH AND DEVELOPMENT CO., LTD., priority 2001, published 2008).

Molecular target: T1, CXCR4 (Homo sapiens, UniProt P61073)
T1 construct: homing of human CD34+ enriched MPB cells to the liver of NOD/SCID mice; endogenous in cells; host or cells: CD34+ enriched mobilized peripheral blood cells, thawed and incubated overnight with SLF, transplanted into non-irradiated NOD/SCID mice
T1 sequence (P61073 whole entry): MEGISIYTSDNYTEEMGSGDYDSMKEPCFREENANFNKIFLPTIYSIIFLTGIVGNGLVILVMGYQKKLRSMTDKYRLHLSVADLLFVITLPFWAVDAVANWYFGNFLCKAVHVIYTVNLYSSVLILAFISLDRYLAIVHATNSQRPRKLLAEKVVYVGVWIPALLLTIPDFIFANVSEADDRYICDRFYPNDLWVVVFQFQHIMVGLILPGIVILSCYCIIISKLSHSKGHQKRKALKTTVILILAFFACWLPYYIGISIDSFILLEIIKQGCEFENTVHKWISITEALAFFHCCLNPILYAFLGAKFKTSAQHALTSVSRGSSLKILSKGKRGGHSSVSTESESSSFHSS
Assay: Homing of human CD34+ enriched MPB cells to the liver of non-irradiated NOD/SCID mice, SDF-1 injected into the liver
Type: in vivo
Details: for homing of human stem cells and progenitor cells to the liver (in words): SDF-1 injected into the liver
Protocol: The following experiment was carried out in order to test whether homing of human CD34+ enriched MPB cells to the liver of NOD/SCID mice requires high concentrations of human SDF-1 in the liver.
Frozen […] mobilized peripheral blood (MPB) CD34+ cells were thawed, and incubated at 37° C. over night with 50 ng/ml SLF for recovery. In contrast to the experiment described in example 1, this experiment was carried out with non irradiated mice (not pre-conditioned) and also in non-irradiated mice in which human SDF-1 has been injected directly into the liver immediately prior transplantation. Briefly, non-irradiated NOD/SCID mice were anaesthetized and 1 microgram SDF-1 (in 50 microliter PBS) were injected into the right lobe of the liver. Next, treated and control mice were transplanted intravenously with 8×10^5 CD34+ MPB enriched cells. In one group, CD34+ cells were incubated for 30 min. (4° C.) with 10 micrograms of neutralizing anti-human CXCR4 mAb (12G5), and co-transplanted without washing. Four hours later, the injected lobe was harvested, a single cell suspension was prepared and introduced to flow cytometry analysis, using human specific anti CD34-FITC and anti CD38-PE mAb. Injection of SDF-1 to the liver creates a positive gradient in the liver and a negative gradient in the blood. Since this gradient is maintained for about 4 hours only, therefore the mice were sacrificed and homing was tested rapidly, four hours after cell injection.

- Number of human cells in the liver per 1 × 10^6 total aquired cells (1 microgram SDF-1 into right liver lobe, 8×10^5 CD34+ MPB cells IV, 12G5 10 micrograms, four hours, flow cytometry): 38
- % (number of human cells in the liver, SDF-1 group = 100) (1 microgram SDF-1 into right liver lobe, four hours after cell injection): 100%
- homing of human stem cells and progenitor cells to the liver (in words) (four hours after cell injection): improves significantly
Substance: SDF-1: human SDF-1, CXC chemokine and ligand of CXCR4, injected directly into the liver
- homing of human stem cells and progenitor cells to the liver (in words) (four hours after cell injection, listed as human SDF-1): a considerable number of human stem cells and progenitor cells were observed
